The record followed here is patent US10428159B2, “Blocking monoclonal antibodies to AGR2 and its receptor C4.4A” (Board of Regents, The University of Texas System, priority 2014, dated 2019).

Assay [1] concerns AsPC-1 cells. Description: Cell proliferation (MTS assay) with rAGR2. In kind it is cell-based. The conditions noted are these: AsPC-1, rAGR2 0-500 nM, concentration-dependent. On the procedure:
(§1) Cell growth, migration, invasion and apoptosis assays. Wild-type and siRNA transfected PDAC cells were grown with rAGR2 (0-500 nM) in the presence and absence of antibodies (polyclonal commercial or newly developed mAbs) (1 μM). The medium was refreshed daily. Cell numbers were estimated after 48 h by MTS assay as described previously (Ramachandran et al., 2007). In order to avoid the differences in basal values for each cell line, the data are presented as the percent of viable cells compared to the appropriate controls. Migration and invasion assays were conducted at 24 h as described previously (Ramachandran et al., 2007). Apoptosis assays were conducted 72 h after adding Gemcitabine (Gem) to Gem-sensitive BxPC-3 cells (1 μM) and Gem-resistant AsPC-1 cells (5 μM) (Arumugam et al., 2009) as described previously (Ramachandran et al., 2008). Because siRNA transfection itself induced basal apoptosis, cells transfected with siRNAs were treated with a lower concentration of Gem (BxPC3: 0.5 μM; AsPC-1: 1 μM).
(Tetrazolium dyes change colour on reduction, which living cells bring about.)

Assay [2] relates to AsPC-1 cells. Briefly: Migration assay with rAGR2. In kind it is cell-based. The settings on record: AsPC-1, rAGR2 0-500 nM. On the procedure: as §1
The test system of assay [3] is AsPC-1 cells. Briefly: Invasion assay with rAGR2. The conditions noted are these: AsPC-1, rAGR2 0-500 nM. In kind it is cell-based. On the procedure:
as §1

The test system of assay [4] is AsPC-1 cells. Description: Apoptosis assay (Gem, rAGR2, antibodies). In kind it is cell-based. On the procedure:
FIGS. 11A-D. Monoclonal antibodies developed bind respectively to AGR2 and C4.4A proteins and blocked their functions. From the endogenous lysate (SU86.86/Panc-1), AGR2 (18 kD) and C4.4A (50 kD) were identified by a panel of mAbs. […] Extra bands identified with the endogenous protein were re-confirmed with the recombinant protein. For apoptosis studies, AsPC-1 cells were treated without or with Gem (0.5 μM) and rAGR2 (100 nM) and with purified (A) AGR2 and (B) C4.4A Abs (1 μM). Commercially available Abs served as control. […] Horizontal line represents median apoptotic value. Data shown are mean±SE for 3 experiments (*p<0.05). (C,D) Binding assays were conducted with purified (C) AGR2 and (D) C4.4A Abs as selected from the apoptosis assay as having high blocking efficiency. ELISA assays were conducted by coating antigenic peptide (0.5 μg) and probed with respective purified Abs. Data shown are mean±SE for 3 experiments (*p <0.05). Based on high specificity and binding, clone 28B for AGR2 and 1A for C4.4A were selected. Purified Abs were also run on 4-20% gradient gel to check for the presence of heavy (50 kD) and light chains (25 kD).
Cell growth, migration, invasion and apoptosis assays. Wild-type and siRNA transfected PDAC cells were grown with rAGR2 (0-500 nM) in the presence and absence of antibodies (polyclonal commercial or newly developed mAbs) (1 μM). The medium was refreshed daily. […]

Assay [5] has as its system BxPC-3 cells. Briefly: Cell proliferation with rAGR2. In kind it is cell-based. The conditions noted are these: BxPC-3, rAGR2 dose-dependent. As for the experimental part: (§2) FIGS. 7A-D. Extracellular rAGR2-mediated functions. (A) Pancreatic cancer cells (BxPC-3 and MiaPaCa-2) were used for these studies. Extracellular addition of rAGR2 caused a significant dose-dependent increase in proliferation (BxPC-3-3-fold increase; MiaPaCa-2-4-fold increase; p<0.05). Pancreatic cancer cells were plated (2×10^4 cells) with and without rAGR2 (0-100 nM) on a Boyden's chamber for migration studies (B) and on an invasion chamber for invasion studies (C). After 22 h, cells were fixed with methanol and stained by hematoxylin, and cells in 10 random fields at 100× magnification were photographed and counted. Extracellular addition of rAGR2 caused a significant dose-dependent increase in migration (BxPC-3-7-fold increase; MiaPaCa-2-3-fold increase) and invasion (BxPC-3-10-fold increase; MiaPaCa-2-3-fold increase). (D) For analysis of apoptosis, BxPC-3 cells were treated with and without Gem (1 μM) and AGR2 (100 nM). […] Data shown are mean±SE for 3 experiments (*p<0.05 vs. control).
(§3) Cell growth, migration, invasion and apoptosis assays. Wild-type and siRNA transfected PDAC cells were grown with rAGR2 (0-500 nM) in the presence and absence of antibodies (polyclonal commercial or newly developed mAbs) (1 μM). The medium was refreshed daily. Cell numbers were estimated after 48 h by MTS assay as described previously (Ramachandran et al., 2007). […]

Assay [6] concerns MiaPaCa-2 cells. Description: Cell proliferation with rAGR2. The conditions noted are these: MiaPaCa-2, rAGR2 dose-dependent. In kind it is cell-based. As for the experimental part: as §2, §3
Assay [7] relates to BxPC-3 cells. Briefly: Migration (Boyden's chamber) with rAGR2. The settings on record: BxPC-3, rAGR2 0-100 nM, 22 h. In kind it is cell-based. As for the experimental part: as §2, §3
The subject of assay [8] is MiaPaCa-2 cells. Description: Migration (Boyden's chamber) with rAGR2. In kind it is cell-based. The settings on record: MiaPaCa-2, rAGR2 0-100 nM, 22 h. As for the experimental part:
as §2, §3

Assay [9] deals with BxPC-3 cells. Briefly: Invasion chamber assay with rAGR2. In kind it is cell-based. The settings on record: BxPC-3, rAGR2 0-100 nM, 22 h. As for the experimental part:
as §2, §3

Assay [10] concerns MiaPaCa-2 cells. Description: Invasion chamber assay with rAGR2. In kind it is cell-based. The conditions noted are these: MiaPaCa-2, rAGR2 0-100 nM, 22 h. On the procedure: as §2, §3
Assay [11] concerns BxPC-3 cells. Description: Apoptosis assay (Gem, rAGR2). In kind it is cell-based. The settings on record: BxPC-3, Gem 1 μM, AGR2 100 nM. As for the experimental part:
as §2, §3

The subject of assay [12] is PDAC cell. Briefly: Blocking of basal and AGR2-stimulated PDAC cell migration by antibodies. The conditions noted are these: antibodies 1 μM, compared to non-specific antibody. In kind it is cell-based. As for the experimental part:
as §1
Blocking monoclonal antibody development. Mouse monoclonal antibodies (mAbs) against AGR2 and C4.4A were developed in the Monoclonal Antibody Core of UT MDACC using unconjugated antigenic peptides. Several hybridoma colonies (2400 for each antibody) were screened for target recognition by ELISA using KLH-conjugated peptides. […]

Assay [13] concerns Capan-2 cells. Description: Model 2 Capan-2 stromal model, orthotopic tumors. In kind it is in vivo, athymic nude mice. On the procedure:
(§4) In vivo studies. In vivo experiments were conducted with athymic nude mice (B6.Cg-Foxn1^nu/J—female—age 9 weeks) (NCI, Bethesda, Md.) according to the UT MDACC regulatory standards and IUCAC committee approval. Orthotopic tumors were developed with luciferase-labeled cells (0.25×10^6). IgG (Cat #OB010701; Southern Biotech, Birmingham, Ala.) served as a control Ab.

In assay [14] the test system is Capan-2 cells. Description: Model 3 Capan-2 regression studies, orthotopic tumors. The conditions noted are these: 15 mg/kg single mAb or 7.5 mg each in combination, twice a week i.p. In kind it is in vivo, athymic nude mice. As for the experimental part: Immunohistochemical (IHC) staining. […] Results were blindly evaluated by a pathologist and expression levels were categorized as positive or negative (cytoplasmic staining of >10% or <10% of the tumor cells, respectively) and staining intensity as strong, moderate, or no staining. Apoptotic cells were detected in paraffin sections by fluorescence-labeled TUNEL staining (Promega, Cat #G3250).
as §4
Tumor growth and metastasis were measured weekly with the IVIS® live animal bioluminescence imaging system after injecting luciferin substrate (Xenogen, Alameda, Calif.). The number of mice surviving was recorded each week and shown as the percent of the original group size.

B1: rAGR2: human recombinant AGR2 protein (ab64013, AbCam) (protein)
chain: RDTTVKPGAKKDTKDSRPKLPQTLSRGWGDQLIWTQTYEEALYKSKTSNKPLMIIHHLDECPHSQALKKVFAENKEIQKLAEQFVLLNLVYETTDKHLSPDGQYVPRIMFVDPSLTVRADITGRYSNRLYAYEPADTALLLDNMKKALKLLKTEL
Consider B1, for which the increased proliferation in assay [1] is 3 fold. Also, in assay [2], the increased migration is reported as 10 fold. Also, in [3], the increased invasion is given as 3 fold. Besides, the “reduction of the effect of Gem (apoptosis)” value in assay [4] (AsPC-1, simultaneous rAGR2 with 5 μM Gem) was > 50%. Besides, the increase in proliferation in assay [5] came to 3 fold; in assay [6], 4 fold. The increase in migration turned out to be 7 fold in assay [7] and 3 fold in [8]. Moreover, the increase in invasion in assay [9] is listed as 10 fold; in [10], 3 fold. In [11], the “reduction of Gem induced apoptosis” value was determined as 50%.

B2: 162-1A-1: mouse monoclonal blocking antibody against C4.4A, IgG2b/kappa, VH SEQ ID NO: 10, VL SEQ ID NO: 11 (antibody, V domains shown)
VH: MNFGLSLIFLVLILKGVQCEVMLVESGGGLVKPGGSLKLSCAASGFTFSSYTMSWVRQTPEKRLEWVASISSGGGNTYYADSVKGRFTMSRDNAKNNLYLQMSSLRSEDTALYYCARSYYYGISYDTYWGQGTLVTVSA
VL: MKLPVRLLVLMFWIPASNSDVVMTQTPLSLPVSLGDQASISCRSSQNLVHSDGNTYLHWYLQKPGQSPKLLIYKVSNRFSGVPDRFSGSGSGTDFTLKISRVEAEDLGVYFCSQSTHVPYTFGGGTKLEIK
Turning to B2, in assay [4] (AsPC-1, Gem, rAGR2 100 nM, Abs 1 μM), the “AGR2-mediated survival effects (Gem-induced apoptosis)” value is on record as “abolished”. Also, in [12], the “basal and AGR2-mediated stimulation in migration” value is recorded as “abolished”. Also, the Median survival in assay [13] (15 mg/kg twice a week i.p.) is 10 weeks. For the same molecule, the mice surviving in assay [13] (at nine weeks (seven weeks of treatment), when all control Ab mice had died, 15 mg/kg twice a week i.p.) was determined as 57%. Besides, the “mice with complete tumor regression” value in assay [13] (bioluminescence imaging, confirmed by surgical examination) is listed as 3/7. Also, the “reduction of tumor volume” value in assay [13] (compared to control Ab, bioluminescence) came out at 50%. The “mice surviving after week 63” value in assay [13] (treatment stopped after 15 weeks, no evidence of tumor) is “one”. The Median survival times in [14] stood at 12 weeks.
